# Test results: US12226476B2, “Helper epitope peptide and application thereof” (CHINA PHARMACEUTICAL UNIVERSITY, priority 2018, dated 2025)
# Non-standard residues stand in square brackets, D forms with d. Phe(4-NO2) = N[C@@H](Cc1ccc([N+](=O)[O-])cc1)C(=O)O
# B1: CD66e-6pPhe-PADRE: fusion antigen: CD66e linked via GPSL to helper epitope SEQ ID NO: 7 (protein)
# chain: KLTIESTPFNVAEGKEVLLLVHNLPQHLFGYSWYKGERVDGNRQIIGYVIGTQQATPGPAYSGREIIYPNASLLIQNIIQNDTGFYTLHVIKSDLVNEEATGQFRVYPELPKPSISSNNSKPVEDKDAVAFTCEPETQDATYLWWVNNQSLPVSPRLQLSNGNRTLTLFNVTRNDTASYKCETQNPVSARRSDSVILNVLYGPDAPTISPLNTSYRSGENLNLSCHAASNPPAQYSWFVNGTFQQSTQELFIPNITVNNSGSYTCQAHNSDTGLNRTTVTTITVYAEPPKPFITSNNSNPVEDEDAVALTCEPEIQNTTYLWWVNNQSLPVSPRLQLSNDNRTLTLLSVTRNDVGPYECGIQNKLSVDHSDPVILNVLYGPDDPTISPSYTYYRPGVNLSLSCHAASNPPAQYSWLIDGNIQQHTQELFISNITEKNSGLYTCQANNSASGHSRTTVKTITVSAELPKPSISSNNSKPVEDKDAVAFTCEPEAQNTTYLWWVNGQSLPVSPRLQLSNGNRTLTLFNVTRNDARAYVCGIQNSVSANRSDPVTLDVLYGPDTPIISPPDSSYLSGANLNLSCHSASNPSPQYSWRINGIPQQHTQVLFIAKITPNNNGTYACFVSNLATGRNNSIVKSITVSASGTSPGLSAGPSLAKFVA[Phe(4-NO2)]WTLKAAA
# B2: FRα-3 ? 8pPhe-PADRE: fusion antigen: FR-α linked via GPSL to helper epitope SEQ ID NO: 16 (protein)
# chain: RIAWARTELLNVCMNAKHHKEKPGPEDKLHEQCRPWRKNACCSTNTSQEAHKDVSYLYRFNWNHCGEMAPACKRHFIQDTCLYECSPNLGPWIQQVDQSWRKERVLNVPLCKEDCEQWWEDCRTSYTCKSNWHKGWNWTSGFNKCAVGAACQPFHFYFPTPTVLCNEIWTHSYKVSNYSRGSGRCIQMWFDPAQGNPNEEVARFYAAAMSGPSLAKXVAAWXLKAAA
# modifications: pPhe non-natural residue; (217)..(217) Xaa stands for 4-Nitrophenylalanine.; (222)..(222) Xaa stands for 4-Nitrophenylalanine.
# B3: TOLL/1-12pPhe-PADRE: fusion antigen: TOLL-1 linked via GPSL to helper epitope SEQ ID NO: 13 (protein)
# chain: SEFLVDRSKNGLIHVPKDLSQKTTILNISQNYISELWTSDILSLSKLRILIISHNRIQYLDISVFKFNQELEYLDLSHNKLVKISCHPTVNLKHLDLSFNAFDALPICKEFGNMSQLKFLGLSTTHLEKSSVLPIAHLNISKVLLVLGETYGEKEDPEGLQDFNTESLHIVFPTNKEFHFILDVSVKTVANLELSNIKCVLEDNKCSYFLSILAKLQTNPKLSNLTLNNIETTWNSFIRILQLVWHTTVWYFSISNVKLQGQLDFRDFDYSGTSLKALSIHQVVSDVFGFPQSYIYEIFSNMNIKNFTVSGTRMVHMLCPSKISPFLHLDFSNNLLTDTVFENCGHLTELETLILQMNQLKELSKIAEMTTQMKSLQQLDISQNSVSYDEKKGDCSWTKSLLSLNMSSNILTDTIFRCLPPRIKVLDLHSNKIKSIPKQVVKLEALQELNVAFNSLTDLPGCGSFSSLSVLIIDHNSVSHPSADFFQSCQKMRSIKAGDNPFQCTCELGEFVKNIDQVSSEVLEGWPDSYKCDYPESYRGTLLKDFHMSELSCNITGPSLAKFVAAWTLKA[Phe(4-NO2)]A
# B4: CD20-5pPhe-PADRE: fusion antigen: CD20 linked via GPSL to helper epitope SEQ ID NO: 6 (protein)
# chain: MTTPRNSVNGTFPAEPMKGPIAMQSGPKPLFRRMSSLVGPTQSFFMRESKTLGAVQIMNGLFHIALGGLLMIPAGIYAPICVTVWYPLWGGIMYIISGSLLAATEKNSRKCLVKGKMIMNSLSLFAAISGMILSIMDILNIKISHFLKMESLNFIRAHTPYINIYNCEPANPSEKNSPSTQYCYSIQSLFLGILSVMLIFAFFQELVIAGIVENEWKRTCSRPKSNIVLLSAEEKKEQTIEIKEEVVGLTETSSQPKNEEDIEIIPIQEEEEEETETNFPEPPQDQESSPIENDSSPGPSLAKFV[Phe(4-NO2)]AWTLKAAA
# B5: EGFR-4pPhe-PADRE: fusion antigen: EGFR linked via GPSL to helper epitope SEQ ID NO: 5 (protein)
# chain: MERKERPFDVIGQLAALRRYARSLVRNSDDAEDLVHDALLRAYEKKQSFRRGGNLRTWLLSIMHNAHIDRVRQARSLARRHDEAAVEAEQSLQAGQEHAVRLKQVRDAFFHLSEEQREALHLVAIEDLSYQEAAMALDIPIGTLMSRISRARAQLREFEEKTPRAAHLRLIGGDGNEGNGPSLAKF[Phe(4-NO2)]AAWTLKAAA
# B6: PSMA-11pPhe-PADRE: fusion antigen: PSMA linked via GPSL to helper epitope SEQ ID NO: 12 (protein)
# chain: QGQAQQQAYDRGITIFSPDGRLYQVEYAREAVKRGTASIGVRTPEGVVLAADKRSRSPLMEPTSVEKIHKADDHIGIASAGHVADARQLIDFARRQSQVNRLRYGEPIGIETLTKEVTDHIQQYTQVGGARPFGVALLIGGVENGTPRLYETDPSGTPYEWKAVSIGADRGDHQEHLEENFRDDLTLDEGIELALEAIASTSDEGTAPDGVDVATVSAETERFVELSNDEIESYLEANDLLATEDDEQTEEGPSLAKFVAAWTLK[Phe(4-NO2)]AA
# B7: VEGFR-8pPhe-PADRE: fusion antigen: VEGFR extracellular domain linked via GPSL to helper epitope SEQ ID NO: 9 (protein)
# chain: ASVGLPSVSLDLPRLSIQKDILTIKANTTLQITCRGQRDLDWLWPNNQSGSEQRVEVTECSDGLFCKTLTIPKVIGNDTGAYKCFYRETDLASVIYVYVQDYRSPFIASVSDQHGVVYITENKNKTVVIPCLGSISNLNVSLCARYPEKRFVPDGNRISWDSKKGFTIPSYMISYAGMVFCEAKINDESYQSIMYIVVVVGYRIYDVVLSPSHGIELSVGEKLVLNCTARTELNVGIDFNWEYPSSKHQHKKLVNRDLKTQSGSEMKKFLSTLTIDGVTRSDQGLYTCAASSGLMTKKNSTFVRVHEKPFVAFGSGMESLVEATVGERVRIPAKYLGYPPPEIKWYKNGIPLESNHTIKAGHVLTIMEVSERDTGNYTVILTNPISKEKQSHVVSLVVYVPPQIGEKSLISPVDSYQYGTTQTLTCTVYAIPPPHHIHWYWQLEEECANEPSQAVSVTNPYPCEEWRSVEDFQGGNKIEVNKNQFALIEGKNKTVSTLVIQAANVSALYKCEAVNKVGRGERVISFHVTRGPEITLQPDMQPTEQESVSLWCTADRSTFENLTWYKLGPQPLPIHVGELPTPVCKNLDTLWKLNATMFSNSTNDILIMELKNASLQDQGDYVCLAQDRKTKKRHCVVRQLTVLERVAPTITGNLENQTTSIGESIEVSCTASGNPPPQIMWFKDNETLVEDSGIVLKDGNRNLTIRRVRKEDEGLYTCQACSVLGCAKVEAFFIIEGAQEKTNLEGPSLAKFVAAW[Phe(4-NO2)]LKAAA
# B8: PD/L1-2pPhe-PADRE: fusion antigen: PD-L1 molecule linked via GPSL to helper epitope SEQ ID NO: 3 (protein)
# chain: MQLKPMEINPEMLNKVLSRLGVAGQWRFVDVLGLEEESLGSVPAPACALLLLFPLTAQHENFRKKQIEELKGQEVSPKVYFMKQTIGNSCGTIGLIHAVANNQDKLGFEDGSVLKQFLSETEKMSPEDRAKCFEKNEAIQAAHDAVAQEGQCRVDDKVNFHFILFNNVDGHLYELDGRMPFPVNHGASSEDTLLKDAAKVCREFTEREQGEVRFSAVALCGPSLA[Phe(4-NO2)]FVAAWTLKAAA
# B9: IL/2Ra-9pPhe-PADRE: fusion antigen: IL-2Ra linked via GPSL to helper epitope SEQ ID NO: 10 (protein)
# chain: ELCDDDPPEIPHATFKAMAYKEGTMLNCECKRGFRRIKSGSLYMLCTGNSSHSSWDNQCQCTSSATRNTTKQVTPQPEEQKERKTTEMQSPMQPVDQASLPGHCREPPPWENEATERIYHFVVGQMVYYQCVQGYRALHRGPAESVCKMTHGKTRWTQPQLICTGEMETSQFPGEEKPQASPEGRPESETSCLVTTTDFQIQTEMAATMETSIFTTEYQGPSLAKFVAAWT[Phe(4-NO2)]KAAA
# What was measured:
# Test in all cases: Antibody titer in serum of immunized mice, indirect ELISA
# Type in all cases: in vivo
# CD66e = conditions: FIG. 6; compared with the CD66e group and the CD66e-PADRE group; mice immunized subcutaneously, 50 μg, Freund's adjuvant
# Experimental: (§1) The protocol is as follows: • (1) The helper epitope was connected to individual antigens or antigen epitope with the linking peptide to construct multiple fusion antigens. The sequence of the linking peptide is GPSL (i.e. Gly-Pro-Ser-Leu) (SEQ ID NO:51). • (2) The fusion antigens from (1) were emulsified adequately with complete Freund's adjuvant of the same volume. Then to immunize mice via subcutaneous injection with the emulsion at the dose of 50 μg per mouse. The strains of experimental mice including C57, Fvb and Balb/C. After 7 days and 14 days of first immunization, the fusion antigens from (1) were emulsified adequately with incomplete Freund's adjuvant of the same volume and then to immunize mice via subcutaneous injection with the emulsion at the dose of 50 μg per mouse. • (3) There are two detection methods. One is to obtain the orbital blood of immunized mice on 7, 14, 21 and 28 day respectively, centrifuge the whole blood to get the serum. Then the antibody titer is detected by indirect ELISA. The other one is: one week after the last immunization, the mice are killed to get the spleen. PBMC (peripheral blood mononuclear cells) are isolated, and the CTL-mediated cytotoxicity is detected by LDH (lactate dehydrogenase) kit.
# (§2) The first step was to construct the fusion antigen. According to each fusion antigen, C57BL/6 female mice aged 6-8 weeks were randomly divided into three groups with 6 mice in each group. They were PBS group, existing antigen or antigen epitope group, antigen-PADRE or antigen epitope-PADRE group, and vaccine group containing fusion antigen.
# (§3) In the second step, using fusion antigen to immunize mice via subcutaneous injection for 3 times […] 50 μg each time. Mixed with Freund's adjuvant of the same volume.
# (§4) Method 1: The whole blood was collected every week after immunization and centrifugated at 6000 rpm for 20 min to obtain the serum for a total of 4 weeks. Antibody titers were detected by indirect ELISA as follows: • (1) Coating: the existing antigen or antigen epitope was diluted to 5 μg/mL with coating solution. Then the 100 μL mixed solution was added into each well of enzyme immunoassay test strip, and incubated in 37° C. incubator for 2 h; • (2) use PBST to wash each well 5 times for 5 min each time; • (3) Sealing: 150 μL locking solution was added to each well of the enzyme immunoassay test strip and incubated at 4° C. overnight. • (4) Repeat step (2); • (5) Incubation first antibody: the collected mouse serum was diluted with antibody diluent. Then the 100 μL mixed solution was added into each well, and incubated at 37° C. for 2 h; • (6) Repeat step (2); • (7) Incubating secondary antibodies: HRP-GOAT Anti-mouse IgG was diluted with antibody dilution in the ratio of 1:10000, and 100 μL dilution was added to each well, and incubated at 37° C. for 45 min; • (8) Repeat step (2); • (9) Substrate addition: 100 μL TMB substrate reaction solution was added into each well of enzyme label, and incubated at 37° C. for 15 min in darkness. • (10) Termination reaction: 50 μL 2M H2SO4 was added into each well to terminate the reaction. • (11) Color development: the absorbance value of the sample in each well was detected at 450/630 nm.
# FR-α = conditions: FIG. 15; compared with the FR-α group and the FR-α-PADRE group; mice immunized subcutaneously, 50 μg, Freund's adjuvant
# Experimental: as §1, §2, §3, §4
# TOLL-1 = conditions: FIG. 12; compared with the TOLL-1 group and the TOLL-1-PADRE group; mice immunized subcutaneously, 50 μg, Freund's adjuvant
# Experimental: as §1, §2, §3, §4
# CD20 = conditions: FIG. 5; compared with the CD20 group and the CD20-PADRE group; mice immunized subcutaneously, 50 μg, Freund's adjuvant
# Experimental: as §1, §2, §3, §4
# EGFR = conditions: FIG. 4; compared with the EGFR group and the EGFR-PADRE group; mice immunized subcutaneously, 50 μg, Freund's adjuvant
# Experimental: as §1, §2, §3, §4
# PSMA = conditions: FIG. 11; compared with the PSMA group and the PSMA-PADRE group; mice immunized subcutaneously, 50 μg, Freund's adjuvant
# Experimental: as §1, §2, §3, §4
# [1] = test system: VEGFR extracellular domain; conditions: FIG. 8; compared with the VEGFR extracellular region group and the VEGFR-PADRE group; mice immunized subcutaneously, 50 μg, Freund's adjuvant
# Experimental: as §1, §2, §3, §4
# PD-L1 molecule = conditions: FIG. 2; compared with the PD-L1 group and the PD-L1-PADRE group; mice immunized subcutaneously, 50 μg, Freund's adjuvant
# Experimental: as §1, §2, §3, §4
# IL-2Ra = conditions: FIG. 9; compared with the IL-2Ra group and the IL-2Ra-PADRE group; mice immunized subcutaneously, 50 μg, Freund's adjuvant
# Experimental: as §1, §2, §3, §4
molecule,measurement,setting,value
B1,antibody titer,CD66e,significant increase
B2,antibody titers,FR-α,increased significantly
B3,antibody titers,TOLL-1,increased significantly
B4,antibody titer,CD20,significant increase
B5,antibody titer,EGFR,increased significantly
B6,antibody titers,PSMA,increased significantly
B7,antibody titers,[1],increased significantly
B8,antibody titer,PD-L1 molecule,significant increase
B9,antibody titers,IL-2Ra,increased significantly
